# Assay results reported in patent US20250281538A1 (US Dept. of Health and Human Services, published 2025).
# T1: GPC2 antigen (UniProt Q8N158 24-553, limits assumed)
# T1 construct: also called glypican-2
# T1 sequence (looked up): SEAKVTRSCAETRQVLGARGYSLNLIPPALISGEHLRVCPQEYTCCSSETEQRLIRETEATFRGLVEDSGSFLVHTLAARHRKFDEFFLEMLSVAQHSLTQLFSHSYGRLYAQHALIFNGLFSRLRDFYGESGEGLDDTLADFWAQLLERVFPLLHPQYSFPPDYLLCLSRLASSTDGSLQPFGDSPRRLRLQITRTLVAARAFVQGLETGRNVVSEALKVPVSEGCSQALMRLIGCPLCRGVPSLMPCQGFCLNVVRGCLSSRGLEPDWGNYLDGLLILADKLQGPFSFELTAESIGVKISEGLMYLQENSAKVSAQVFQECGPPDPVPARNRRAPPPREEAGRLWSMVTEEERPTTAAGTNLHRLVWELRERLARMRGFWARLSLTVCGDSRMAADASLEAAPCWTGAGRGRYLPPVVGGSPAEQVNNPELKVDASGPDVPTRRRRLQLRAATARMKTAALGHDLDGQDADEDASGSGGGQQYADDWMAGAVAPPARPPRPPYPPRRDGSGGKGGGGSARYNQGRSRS
# B1: ART-HN3-HN3 AbTCR+CSR (protein)
# chain 1: QVQLVQSGGGLVQPGGSLRLSCAASYFDFDSYEMSWVRQAPGKGLEWIGSIYHSGSTYYNPSLKSRVTISRDNSKNTLYLQMNTLRAEDTATYYCARVNMDRFDYWGQGTLVTVSSEQKLISEEDLAAATGAPPLGTQPDCNPTPENGEAPASTSPTQSLLVDSQASKTLPIPTSAPVALSSTGKPVLDAGPVLFWVILVLVVVVGSSAFLLCHRRACRKRIRQKLHLCYPVQTSQPKLELVDSRPRRSSTQLRSGASVTEPVAEERGLMSQPLMETCHSVGAAYLESLPLQDASPAGGPSSPRDLPEPRVSTEHTNNKIEKIYIMKADTVIVGTVKAELPEGRGLAGPAEPELEEELEADHTPHYPEQETEPPLGSCSDVMLSVEEEGKEDPLPTAASGK
# chain 2: QVQLVQSGGGLVQPGGSLRLSCAASYFDFDSYEMSWVRQAPGKGLEWIGSIYHSGSTYYNPSLKSRVTISRDNSKNTLYLQMNTLRAEDTATYYCARVNMDRFDYWGQGTLVTVSSASTKGPSVFPLAPSSKSTSGGTAALGCLVKDYFPEPVTVSWNSGALTSGVHTFPAVLQSSGLYSLSSVVTVPSSSLGTQTYICNVNHKPSNTKVDKRVEPKSCEVKTDSTDHVKPKETENTKQPSKSCHKPKAIVHTEKVNMMSLTVLGLRMLFAKTVAVNFLLTAKLFFL
# chain 3: QVQLVQSGGGLVQPGGSLRLSCAASYFDFDSYEMSWVRQAPGKGLEWIGSIYHSGSTYYNPSLKSRVTISRDNSKNTLYLQMNTLRAEDTATYYCARVNMDRFDYWGQGTLVTVSSRTVAAPSVFIFPPSDEQLKSGTASVVCLLNNFYPREAKVQWKVDNALQSGNSQESVTEQDSKDSTYSLSSTLTLSKADYEKHKVYACEVTHQGLSSPVTKSFNRGECPIKTDVITMDPKDNCSKDANDTLLLQLTNTSAYYMYLLLLLKSVVYFAIITCCLLRRTAFCCNGEKS
# B2: ART-hCT3-1-hCT3-1 AbTCR+CSR (other)
# chain 1: DVVMTQSPLSLPVTPGEPASISCRASSSVNYIYWYLQKPGQSPQLWIYYTSNLAPGVPDRFSGSGSGTDFTLKISRVEAEDVGVYYCQQFSSSPSTFGQGTKLEIKRSRGGGGSGGGGSGGGGSLEMAQVQLVQSGAEVKKPGASVKVSCKASRFTFTDYNIHWVRQAPGQGLEWIGYINPNNGDIFYKQKFNGRVTLTADKSTSTAYMELSSLTSEDTAVYYCVRSSNIRYTFDRFFDVWGQGTLVTVSSEQKLISEEDLAAATGAPPLGTQPDCNPTPENGEAPASTSPTQSLLVDSQASKTLPIPTSAPVALSSTGKPVLDAGPVLFWVILVLVVVVGSSAFLLCHRRACRKRIRQKLHLCYPVQTSQPKLELVDSRPRRSSTQLRSGASVTEPVAEERGLMSQPLMETCHSVGAAYLESLPLQDASPAGGPSSPRDLPEPRVSTEHTNNKIEKIYIMKADTVIVGTVKAELPEGRGLAGPAEPELEEELEADHTPHYPEQETEPPLGSCSDVMLSVEEEGKEDPLPTAASGK
# chain 2: QVQLVQSGAEVKKPGASVKVSCKASRFTFTDYNIHWVRQAPGQGLEWIGYINPNNGDIFYKQKFNGRVTLTADKSTSTAYMELSSLTSEDTAVYYCVRSSNIRYTFDRFFDVWGQGTLVTVSSASTKGPSVFPLAPSSKSTSGGTAALGCLVKDYFPEPVTVSWNSGALTSGVHTFPAVLQSSGLYSLSSVVTVPSSSLGTQTYICNVNHKPSNTKVDKRVEPKSCEVKTDSTDHVKPKETENTKQPSKSCHKPKAIVHTEKVNMMSLTVLGLRMLFAKTVAVNFLLTAKLFFL
# chain 3: DVVMTQSPLSLPVTPGEPASISCRASSSVNYIYWYLQKPGQSPQLWIYYTSNLAPGVPDRFSGSGSGTDFTLKISRVEAEDVGVYYCQQFSSSPSTFGQGTKLEIKRTVAAPSVFIFPPSDEQLKSGTASVVCLLNNFYPREAKVQWKVDNALQSGNSQESVTEQDSKDSTYSLSSTLTLSKADYEKHKVYACEVTHQGLSSPVTKSFNRGECPIKTDVITMDPKDNCSKDANDTLLLQLTNTSAYYMYLLLLLKSVVYFAIITCCLLRRTAFCCNGEKS
# notes: also called ART-hCT3-hCT3; hCT3 AbTCR+CSR
# B3: ART-CT3-CT3 AbTCR+CSR (other)
# chain 1: ENVLTQSPAIMSASLGEKVTMSCRASSSVNYIYWYQQKSDASPKLWIYYTSNLAPGVPARFSGSGSGNSYSLTISSMEGEDAATYYCQQFSSSPSTFGTGTKLELKRSRGGGGSGGGGSGGGGSLEMAEVQLQQSGPELVKPGASVKMSCKASRFTFTDYNIHWVKQSPGKTLEWIGYINPNNGDIFYKQKFNGKATLTINKSSNTAYMELRSLTSEDSAVYYCVRSSNIRYTFDRFFDVWGTGTTVTVSSEQKLISEEDLAAATGAPPLGTQPDCNPTPENGEAPASTSPTQSLLVDSQASKTLPIPTSAPVALSSTGKPVLDAGPVLFWVILVLVVVVGSSAFLLCHRRACRKRIRQKLHLCYPVQTSQPKLELVDSRPRRSSTQLRSGASVTEPVAEERGLMSQPLMETCHSVGAAYLESLPLQDASPAGGPSSPRDLPEPRVSTEHTNNKIEKIYIMKADTVIVGTVKAELPEGRGLAGPAEPELEEELEADHTPHYPEQETEPPLGSCSDVMLSVEEEGKEDPLPTAASGK
# chain 2: EVQLQQSGPELVKPGASVKMSCKASRFTFTDYNIHWVKQSPGKTLEWIGYINPNNGDIFYKQKFNGKATLTINKSSNTAYMELRSLTSEDSAVYYCVRSSNIRYTFDRFFDVWGTGTTVTVSSASTKGPSVFPLAPSSKSTSGGTAALGCLVKDYFPEPVTVSWNSGALTSGVHTFPAVLQSSGLYSLSSVVTVPSSSLGTQTYICNVNHKPSNTKVDKRVEPKSCEVKTDSTDHVKPKETENTKQPSKSCHKPKAIVHTEKVNMMSLTVLGLRMLFAKTVAVNFLLTAKLFFL
# chain 3: ENVLTQSPAIMSASLGEKVTMSCRASSSVNYIYWYQQKSDASPKLWIYYTSNLAPGVPARFSGSGSGNSYSLTISSMEGEDAATYYCQQFSSSPSTFGTGTKLELKRTVAAPSVFIFPPSDEQLKSGTASVVCLLNNFYPREAKVQWKVDNALQSGNSQESVTEQDSKDSTYSLSSTLTLSKADYEKHKVYACEVTHQGLSSPVTKSFNRGECPIKTDVITMDPKDNCSKDANDTLLLQLTNTSAYYMYLLLLLKSVVYFAIITCCLLRRTAFCCNGEKS
# notes: AbTCR heterodimer and CSR are expressed together on one cell
# B4: CT3 CAR (CT3-CD28HTM) (other)
# VH: EVQLQQSGPELVKPGASVKMSCKASRFTFTDYNIHWVKQSPGKTLEWIGYINPNNGDIFYKQKFNGKATLTINKSSNTAYMELRSLTSEDSAVYYCVRSSNIRYTFDRFFDVWGTGTTVTVSS
# VL: ENVLTQSPAIMSASLGEKVTMSCRASSSVNYIYWYQQKSDASPKLWIYYTSNLAPGVPARFSGSGSGNSYSLTISSMEGEDAATYYCQQFSSSPSTFGTGTKLELK
# notes: Only the CT3 VH and VL are tied to the antibody
# B5: hCT3 CAR (hCT3-1 CD28HTM) (other)
# VH: QVQLVQSGAEVKKPGASVKVSCKASRFTFTDYNIHWVRQAPGQGLEWIGYINPNNGDIFYKQKFNGRVTLTADKSTSTAYMELSSLTSEDTAVYYCVRSSNIRYTFDRFFDVWGQGTLVTVSS
# VL: DVVMTQSPLSLPVTPGEPASISCRASSSVNYIYWYLQKPGQSPQLWIYYTSNLAPGVPDRFSGSGSGTDFTLKISRVEAEDVGVYYCQQFSSSPSTFGQGTKLEIK
# notes: only hCT3-1 VH and VL are tied to the antibody; also called hCT3-CD28HTM
# Columns and labels:
# [1] = biological target: GPC3 protein (UniProt P51654); assay: flow cytometry of Jurkat T cells expressing the construct, stained with 2.3ng/ml (0.04nM) GPC3-hFc
# [2] = biological target: GPC3 protein (UniProt P51654); assay: flow cytometry of Jurkat T cells expressing the construct, stained with 4.6ng/ml (0.08nM) GPC3-hFc
# [3] = biological target: T1, GPC2 antigen; assay: flow cytometry of Jurkat T cells expressing the construct, GPC2 binding read in the APC channel; GPC2 concentration not given
# Description: Shown in FIG. 12 is a flow cytometric analysis of Jurkat T cells expressing CT3 and hCT3 CARs (CT3-CD28HTM and hCT3-1 CD28HTM, respectively) and AbTCRs+CSRs (ART-CT3-CT3 and ART-hCT3-1-hCT3-1, respectively). T cells expressing each of the constructs were capable of binding to GPC2 antigen. Mock T cells not expressing a CAR or AbTCR+CSR were included as a negative control.
Binder,percent of cells in the binding-positive gate [1] [%],percent of cells in the binding-positive gate [2] [%],percent of cells in the GPC2-binding-positive gate [3] [%]
B1,56.9,70.6,–
B2,–,–,62.4
B3,–,–,57.3
B4,–,–,41.9
B5,–,–,26.5
